# Assay results reported in patent US20080057055A1, “OLD-35 as an inflammatory agent” (priority 2004, published 2008).
# Columns and labels:
# HeLa cells = test: Monitoring ROS production by flow cytometry (HE and DCFH-DA staining); format: cell-based, human; details: Ad.hPNPase 50 pfu/cell, plus 20 mM NAC
# Experimental: Cell Lines, Reagents and Virus Infection protocol. The human cervical carcinoma cell line HeLa was cultured in Dulbecco's Modified Eagle Medium (DMEM) supplemented with 10% fetal calf serum, penicillin (50 units/ml) and streptomycin (50 μg/ml) at 37° C. in 5% CO2 and 100% relative humidity. N-acetyl-L-cysteine and Tiron were obtained from Sigma (St. Louis, Mo.). The recombinant replication-incompetent adenovirus expressing old-35 (Ad.hPNPase) was created in two steps as described previously and plaque purified by standard procedures (1, 28). Cells were infected with a multiplicity of infection (m.o.i.) of 1 to 50 plaque forming units (pfu)/cell of Ad.vec (control replication-incompetent adenovirus) or Ad.hPNPase as described (29).
# Monitoring ROS Production. Cells were stained with 2.5 μM hydroethidine (HE) and 5 μM 5,6-carboxy-2′,7′-dichlorofluorescein diacetate (DCFH-DA) in PBS for 30 min in the dark (32). Immediately after staining the cells were analyzed by flow cytometry (FACScan; Becton Dickinson, Mountain View, Calif.) and data were analyzed using CellQuest software, version 3.1 (Becton Dickinson). The cells were gated to exclude cell debris.
# IL-6 = test: Human IL-6 ELISA in culture supernatants; format: cell-based; details: HeLa, Ad.hPNPase 50 pfu/cell; plus 20 mM NAC
# Description: (§1) Human IL-6 and IL-8 ELISA. The levels of IL-6 and IL-8 were quantified by ELISA in culture supernatants using human IL-6 ELISA kit (Pierce Biotechnology, Rockford, Ill.) and human IL-8 ELISA kit (Pierce), respectively, according to the manufacturer's protocol.
# IκBα, p65 = test: Western blot of cytoplasmic and nuclear extracts; format: cell-based, human; details: 20 mM NAC, 2 days post-infection
# Experimental: Cell Fractionation. Cells were harvested and the cytoplasm and nucleus were fractionated by the modified Schreiber's method as described (31). Briefly, the cells were washed with PBS and lysed for 10 min in Buffer A (10 mM HEPES pH 7.9, 10 mM KCl, 1.5 mM MgCl2, 1 mM EDTA, 1 mM dithiothreitol, 0.1% Nonidet P-40) containing protease inhibitor cocktail (Roche, Mannheim, Germany). After centrifugation, the supernatant was saved as the cytoplasmic fraction and the pellet containing nuclei was lysed in Buffer B (20 mM HEPES pH 7.9, 400 mM KCl, 20% glycerol, 1 mM EDTA, 1 mM DTT) containing protease inhibitor cocktail (Roche) with one freeze-thaw cycle. After centrifugation the supernatant was collected as the nuclear fraction. Protein concentration was determined by Bio-Rad protein assay kit (Bio-Rad laboratories, Hercules, Calif.).
# Preparation of Whole Cell Lysates and Western Blot Analysis. Whole cell lysates were prepared and Western blotting was performed as described (4). Briefly, cells were harvested in RIPA buffer containing protease inhibitor cocktail (Roche, Mannheim, Germany), 1 mM Na3VO4 and 50 mM NaF and centrifuged at 12,000 rpm for 10 min at 4° C. The supernatant was used as total cell lysate. Thirty μg of total cell lysate were used for SDS-PAGE and transferred to a nitrocellulose membrane. […]
# IL-8 = test: Human IL-8 ELISA in culture supernatants; format: cell-based; details: HeLa, Ad.hPNPase 50 pfu/cell; plus 20 mM NAC
# Description: as §1
# c-myc mRNA = test: In vitro mRNA degradation assay with in vitro translated proteins; format: biochemical, human; details: in vitro translated protein incubated with HO-1 total RNA for 0.5 and 2 h
# Experimental: In vitro Translation and in vitro mRNA Degradation Assays: In vitro translation was performed using the TNT coupled Reticulocyte Lysate Systems (Promega) using the plasmids pcDNA3.1+(Hygro) as a control, GADD153 expression plasmid, phPNPase^old-35, pΔRPH1, pΔRPH2, pΔRPH1+2 and pΔC-term according to the manufacturer's protocol. Five […] of total RNA from HO-1 cells were incubated with 5 μl of each in vitro translated protein at 37° C. from 0.5 to 2 h. The RNA was repurified using the Qiagen RNeasy mini kit (Qiagen) and Northern blotting was performed.
# [1] = target: the molecule itself; test: self-association inferred from anti-HA Western blot of fractionated HO-1 cells
# NF-κB p65 subunit (RelA) = NF-κB p65 subunit (RelA) (human, UniProt Q04206 1-551); test: complex composition inferred from EMSA supershift
# Chain of NF-κB p65 subunit (RelA) (Q04206 whole entry): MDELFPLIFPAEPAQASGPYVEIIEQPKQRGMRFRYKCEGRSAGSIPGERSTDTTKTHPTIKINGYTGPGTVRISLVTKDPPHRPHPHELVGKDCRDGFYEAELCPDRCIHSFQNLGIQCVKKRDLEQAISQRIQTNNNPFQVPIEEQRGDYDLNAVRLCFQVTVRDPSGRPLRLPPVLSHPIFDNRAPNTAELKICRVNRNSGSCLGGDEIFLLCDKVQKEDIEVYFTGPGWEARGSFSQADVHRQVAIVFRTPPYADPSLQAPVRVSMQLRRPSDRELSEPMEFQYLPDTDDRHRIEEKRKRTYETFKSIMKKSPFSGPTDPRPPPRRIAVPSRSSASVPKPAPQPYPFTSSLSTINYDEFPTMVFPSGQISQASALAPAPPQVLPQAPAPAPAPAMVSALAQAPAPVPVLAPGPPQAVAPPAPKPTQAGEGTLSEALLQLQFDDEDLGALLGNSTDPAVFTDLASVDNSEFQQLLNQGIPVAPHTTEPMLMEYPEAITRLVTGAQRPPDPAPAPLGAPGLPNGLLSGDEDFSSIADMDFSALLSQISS
Molecule,degradation of c-myc mRNA (c-myc mRNA),binding result [1],further results
"CC(=O)N[C@@H](CS)C(=O)O [NAC, N-acetyl-L-cysteine]",,,"percentage of high ROS containing cells (HeLa cells; 24 hr): ~2%; percentage of high ROS containing cells (HeLa cells; 36 hr): ~3%; secreted IL-6 in culture supernatant (IL-6): markedly inhibited; degradation of IκBα and nuclear translocation of p65 by Ad.hPNPase^old-35 infection (IκBα, p65): inhibited; secreted IL-8 in culture supernatant (IL-8): markedly inhibited"
"ΔRPH2 deletion mutant of hPNPase^OLD-35 (a.a. 1-202 and 496-783) with C-terminal HA tag (enzyme, The two fragments were joined at an HpaI site; also called Ad.ΔRPH2; pΔRPH2) MAACRYCCSCLRLRPLSDGPFLLPRRDRALTQLQVRALWSSAGSRAVAVDLGNRKLEISSGKLARFADGSAVVQSGDTAVMVTAVSKTKPSPSQFMPLVVDYRQKAAAAGRIPTNYLRREVGTSDKEILTSRIIDRSIRPLFPAGYFYDTQVLCNLLAVDGVNEPDVLAINGASVALSLSDIPWNGPVGAVRIGIIDGEYVVMDSGVPISSAVAGVAIGLVTKTDPEKGEIEDYRLLTDILGIEDYNGDMDFKIAGTNKGITALQADIKLPGIPIKIVMEAIQQASVAKKEILQIMNKTISKPRASRKENGPVVETVQVPLSKRAKFVGPGGYNLKKLQAETGVTISQVDEETFSVFAPTPSVMHEARDFITEICKDDQEQQLEFGAVYTATITEIRDTGVMVKLYPNMTAVLLHNTQLDQRKIKHPTALGLEVGQEIQVKYFGRDPADGRMRLSRKVLQSPATTVVRTLNDRSSIVMGEPISQSSSNSQYPYDVPDYA",significant degradation,no binding,
"phPNPase^old-35: plasmid expressing full-length HA-tagged hPNPase^OLD-35 protein, in vitro translated for RNA degradation assays (protein, UniProt Q8TCS8 1-783, looked up, full-length HA tag, plasmid expressing full-length HA-tagged hPNPase^OLD-35 protein, in vitro translated for RNA degradation assays) MAACRYCCSCLRLRPLSDGPFLLPRRDRALTQLQVRALWSSAGSRAVAVDLGNRKLEISSGKLARFADGSAVVQSGDTAVMVTAVSKTKPSPSQFMPLVVDYRQKAAAAGRIPTNYLRREIGTSDKEILTSRIIDRSIRPLFPAGYFYDTQVLCNLLAVDGVNEPDVLAINGASVALSLSDIPWNGPVGAVRIGIIDGEYVVNPTRKEMSSSTLNLVVAGAPKSQIVMLEASAENILQQDFCHAIKVGVKYTQQIIQGIQQLVKETGVTKRTPQKLFTPSPEIVKYTHKLAMERLYAVFTDYEHDKVSRDEAVNKIRLDTEEQLKEKFPEADPYEIIESFNVVAKEVFRSIVLNEYKRCDGRDLTSLRNVSCEVDMFKTLHGSALFQRGQTQVLCTVTFDSLESGIKSDQVITAINGIKDKNFMLHYEFPPYATNEIGKVTGLNRRELGHGALAEKALYPVIPRDFPFTIRVTSEVLESNGSSSMASACGGSLALMDSGVPISSAVAGVAIGLVTKTDPEKGEIEDYRLLTDILGIEDYNGDMDFKIAGTNKGITALQADIKLPGIPIKIVMEAIQQASVAKKEILQIMNKTISKPRASRKENGPVVETVQVPLSKRAKFVGPGGYNLKKLQAETGVTISQVDEETFSVFAPTPSAMHEARDFITEICKDDQEQQLEFGAVYTATITEIRDTGVMVKLYPNMTAVLLHNTQLDQRKIKHPTALGLEVGQEIQVKYFGRDPADGRMRLSRKVLQSPATTVVRTLNDRSSIVMGEPISQSSSNSQ",significant degradation,,
"pGADD153: unrelated plasmid that expresses a transcription factor (protein, UniProt P35638 1-169, looked up, expressed from plasmid, unrelated plasmid that expresses a transcription factor) DNA damage-inducible …: MAAESLPFSFGTLSSWELEAWYEDLQEVLSSDENGGTYVSPPGNEEEESKIFTTLDPASLAWLTEEEPEPAEVTSTSQSPHSPDSSQSSLAQEEEEEDQGRTRKRKQSGHSPARAGKQRMKEKEQENERKVAQLAEENERLKQEIERLTREVEATRRALIDRMVNLHQA",No degradation,,
"NF-κB p50 subunit (other, human, UniProt P19838 1-433, looked up, also called NF-κB1 (p50/p105)) MAEDDPYLGRPEQMFHLDPSLTHTIFNPEVFQPQMALPTDGPYLQILEQPKQRGFRFRYVCEGPSHGGLPGASSEKNKKSYPQVKICNYVGPAKVIVQLVTNGKNIHLHAHSLVGKHCEDGICTVTAGPKDMVVGFANLGILHVTKKKVFETLEARMTEACIRGYNPGLLVHPDLAYLQAEGGGDRQLGDREKELIRQAALQQTKEMDLSVVRLMFTAFLPDSTGSFTRRLEPVVSDAIYDSKAPNASNLKIVRMDRTAGCVTGGEEIYLLCDKVQKDDIQIRFYEEEENGGVWEGFGDFSPTDVHRQFAIVFKTPKYKDINITKPASVFVQLRRKSDLETSEPKPFLYYPEIKDKEEVQRKRQKLMPNFSDSFGGGSGAGAGGGGMFGSGGGGGGTGSTGPGYSFPHYGFPTYGGITFHPGTTKSNAGMKHG",,,binding result (NF-κB p65 subunit (RelA)): binds
"ΔC-term deletion mutant of hPNPase^OLD-35 (a.a. 1-507) with C-terminal HA tag (enzyme, also called Ad.ΔC-term; pΔC-term) MAACRYCCSCLRLRPLSDGPFLLPRRDRALTQLQVRALWSSAGSRAVAVDLGNRKLEISSGKLARFADGSAVVQSGDTAVMVTAVSKTKPSPSQFMPLVVDYRQKAAAAGRIPTNYLRREVGTSDKEILTSRIIDRSIRPLFPAGYFYDTQVLCNLLAVDGVNEPDVLAINGASVALSLSDIPWNGPVGAVRIGIIDGEYVVNPTRKEMSSSTLNLVVAGAPKSQIVMLEASAENILQQDFCHAIKVGVKYTQQIIQGIQQLVKETGVTKRTPQKLFTPSPEIVKYTHKLAMERLYAVFTDYEHDKVSRDEAVNKIRLDTEEQLKEKFPEADPYEIIESFNVVAKEVFRSIVLNEYKRCDGRDLTSLRNVSCEVDMFKTLHGSALFQRGQTQVLCTVTFDSLESGIKSDQVITAINGIKDKNFMLHYEFPPYATNEIGKVTGLNRRELGHGALAEKALYPVIPRDFPFTIRVTSEVLESNGSSSMASACGGSLALMDSGVPISSAVAYPYDVPDYA",significant degradation,no binding,
"pΔRPH1+2: plasmid for ΔRPH1+2 deletion mutant, in vitro translated protein of 31 kDa (protein) MDSGVPISSAVAGVAIGLVTKTDPEKGEIEDYRLLTDILGIEDYNGDMDFKIAGTNKGITALQADIKLPGIPIKIVMEAIQQASVAKKEILQIMNKTISKPRASRKENGPVVETVQVPLSKRAKFVGPGGYNLKKLQAETGVTISQVDEETFSVFAPTPSVMHEARDFITEICKDDQEQQLEFGAVYTATITEIRDTGVMVKLYPNMTAVLLHNTQLDQRKIKHPTALGLEVGQEIQVKYFGRDPADGRMRLSRKVLQSPATTVVRTLNDRSSIVMGEPISQSSSNSQYPYDVPDYA",No degradation,,
"ΔRPH1 deletion mutant of hPNPase^OLD-35 (a.a. 183-783) with C-terminal HA tag (enzyme, also called Ad.ΔRPH1; pΔRPH1) PWNGPVGAVRIGIIDGEYVVNPTRKEMSSSTLNLVVAGAPKSQIVMLEASAENILQQDFCHAIKVGVKYTQQIIQGIQQLVKETGVTKRTPQKLFTPSPEIVKYTHKLAMERLYAVFTDYEHDKVSRDEAVNKIRLDTEEQLKEKFPEADPYEIIESFNVVAKEVFRSIVLNEYKRCDGRDLTSLRNVSCEVDMFKTLHGSALFQRGQTQVLCTVTFDSLESGIKSDQVITAINGIKDKNFMLHYEFPPYATNEIGKVTGLNRRELGHGALAEKALYPVIPRDFPFTIRVTSEVLESNGSSSMASACGGSLALMDSGVPISSAVAGVAIGLVTKTDPEKGEIEDYRLLTDILGIEDYNGDMDFKIAGTNKGITALQADIKLPGIPIKIVMEAIQQASVAKKEILQIMNKTISKPRASRKENGPVVETVQVPLSKRAKFVGPGGYNLKKLQAETGVTISQVDEETFSVFAPTPSVMHEARDFITEICKDDQEQQLEFGAVYTATITEIRDTGVMVKLYPNMTAVLLHNTQLDQRKIKHPTALGLEVGQEIQVKYFGRDPADGRMRLSRKVLQSPATTVVRTLNDRSSIVMGEPISQSSSNSQYPYDVPDYA",significant degradation,no binding,
